36 sequences from the supplement of paper PMC10567573 can be followed below.

± gives the standard deviation.

The data set is described as follows: protein stability index of a GFP-peptide fusion (GPS, HEK-293T) (PSI 1-6); higher = more stable. The following applies: c terminus: a fixed tail appended.
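Also: 24-mer peptide tiles fused after GFP, lentivirally expressed, FACS-sorted into six equal bins by GFP/DsRed ratio, decoded by Illumina sequencing, PSI is the read-weighted mean bin number.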

As for ESLPHRLSCLGQQQQEPPLAMGTV [PLAGL1], the protein stability index is, setting by setting: (treatment: DMSO) 3.92 ± 0.17; (treatment: MLN4924 1 uM, 8 h) 4.04 ± 0.26.
Take ESPSFLSLRKGASLSNGQGSRVLH [NCK2]: the protein stability index was found to be 3.83 ± 0.27 (treatment: DMSO) and 3.92 ± 0.16 (treatment: MLN4924 1 uM, 8 h).
Consider ESRACLERIQELEDLLAKEKDNSR [LMNB1], for which the protein stability index amounted to 5.04 ± 0.46 (treatment: DMSO) and 5.15 ± 0.27 (treatment: MLN4924 1 uM, 8 h).
For ESSDLQMDVMPGEGDLPQMEVGSG [EID1] the same measures were 5.42 ± 0.15 and 5.21 ± 0.3.
For ESYTKMCDPGMTAFEPEALGNLVE [CAMK2A] the same measures were 4.1 ± 0.31 and 4.16 ± 0.33.
On to ETELALVKESGERKVTDSISKSLE [DLC1], for which the protein stability index by setting is: (treatment: DMSO) 5.56 ± 0.35; (treatment: MLN4924 1 uM, 8 h) 5.13 ± 0.44.
Consider ETELAMRQSVENDIHGLRKVIDDT [KRT18], for which the protein stability index is 5.17 ± 0.28 (treatment: DMSO) and 5.2 ± 0.18 (treatment: MLN4924 1 uM, 8 h).
On to ETFAFQAEIAQLMSLIINTFYSNK [HSP90AB1], for which the protein stability index (treatment: DMSO) is 2.84 ± 0.66 and the protein stability index (treatment: MLN4924 1 uM, 8 h) amounted to 2.63 ± 0.54.
Turning to ETVSPLPSSMDLLIQDSPDSSTSP [NANOGP8], the protein stability index was determined as 5.45 ± 0.37 (treatment: DMSO) and 5.45 ± 0.25 (treatment: MLN4924 1 uM, 8 h).
For EVDFFQRYFIADLPHLQDSFVDKL [INTS4] the same measures were 2.23 ± 0.43 and 2.65 ± 0.25.
For EVEEVENVQTEFPGEDENPEKASE [TRIM55] the same measures were 5.57 ± 0.39 and 5.47 ± 0.52.
Turning to EVFYYSCEYNFVSPSKSFWTRITC [CFHR2], the protein stability index (treatment: DMSO) is 3.39 ± 0.15 and the protein stability index (treatment: MLN4924 1 uM, 8 h) amounted to 2.31 ± 0.27.
For EVGMVKCGSRRERCGYRLVRRQRS [ESR2] the same measures were 3.19 ± 0.35 and 3.27 ± 0.43.
For EVHERNDGIDPFPLLMNRQRVPKV [EFHC1] the same measures were 3.67 ± 0.31 and 3.64 ± 0.3.
For EVKIRDWHLKQSPASPERDYSPYY [KRT13] the same measures were 3.34 ± 0.38 and 3.35 ± 0.47.
As for EVVNRKFGNRIKVLRSRIRFIHLV [POMT2], the protein stability index by setting is: (treatment: DMSO) 2.56 ± 0.22; (treatment: MLN4924 1 uM, 8 h) 2.43 ± 0.43.
For EWELLDPTQKALYNDVMQENYETV [ZNF75A] the same measures were 4.77 ± 0.086 and 4.98 ± 0.19.
For EYTCDVEKRSRGQVLFDKVCEHLN [EPB41L3] the same measures were 2.16 ± 0.32 and 2.05 ± 0.61.
For FAVLHWKPPQNPVDTYDVQVTAPG [TNXB] the same measures were 2.76 ± 0.25 and 2.68 ± 0.46.
Take FDALDDYEHHYHTLHGNVCSFCKR [ZNF511]: the protein stability index by setting is: (treatment: DMSO) 3.83 ± 0.33; (treatment: MLN4924 1 uM, 8 h) 4.19 ± 0.41.
For FDVGGQRSERKKWIHCFEGVTAII [GNAI1] the same measures were 2.29 ± 0.44 and 1.95 ± 0.37.
Regarding FELQRLEFDLSPLNLDIGQVYKET [AASDHPPT], the protein stability index is, setting by setting: (treatment: DMSO) 2.42 ± 0.092; (treatment: MLN4924 1 uM, 8 h) 2.29 ± 0.62.
FESFPAGSTLIFYKYCDHENAAFK [TOR1AIP2] displayed a protein stability index (treatment: DMSO) of 2.17 ± 0.14 and a protein stability index (treatment: MLN4924 1 uM, 8 h) of 2.17 ± 0.23.
On to FFSEIISSVSDVKFSHSGRYMLTR [PPP2R2C], for which the protein stability index reads like this: (treatment: DMSO) 2.08 ± 0.48; (treatment: MLN4924 1 uM, 8 h) 2.06 ± 0.22.
For FIEERRQGLEQFINKIAGHPLAQN [SNX12] the same measures were 2.73 ± 0.17 and 2.94 ± 0.47.
For FKDLNESLNALEDQDLDALMADLV [APBB1IP] the same measures were 3.19 ± 0.26 and 3.52 ± 0.26.
For FLCGRALTSDLYAPMVAGALARLG [SLC25A39] the same measures were 2.85 ± 0.26 and 3.02 ± 0.64.
With FLLRNSQRTVGQLMELCRLYHRAD [EDARADD], the protein stability index was found to be 2.12 ± 0.24 (treatment: DMSO) and 2.23 ± 0.25 (treatment: MLN4924 1 uM, 8 h).
For FLVRLLMAMAVMLYYSNFVLALEE [MFSD9] the same measures were 2.85 ± 0.14 and 3.02 ± 0.21.
For FNKPSRVPAPEAFRDPIWSTWALY [MYORG], the protein stability index was 2.23 ± 0.46 (treatment: DMSO) and 2.25 ± 0.47 (treatment: MLN4924 1 uM, 8 h).
For FNSTYNARVKAFNKTGVSPYSKTL [TRIM9] the same measures were 2.55 ± 0.41 and 2.85 ± 0.38.
As for FPNIASATKFKQLYRSRMNSLEMT [HMOX1], the protein stability index reads like this: (treatment: DMSO) 2.37 ± 0.16; (treatment: MLN4924 1 uM, 8 h) 2.62 ± 0.23.
As for FQASNPYLPTRGGTTMASGGRFRC [TRIM55], the protein stability index by setting is: (treatment: DMSO) 2.54 ± 0.65; (treatment: MLN4924 1 uM, 8 h) 3.14 ± 0.7.
For FQEAMTHLQHKLICTRKPEEIRGG [TENT5D] the same measures were 3.05 ± 0.17 and 3.29 ± 0.41.
Sequence FQQPAPEYHQPQAPANVAKIQLRL [LOXL2] showed a protein stability index (treatment: DMSO) of 2.81 ± 0.23 and a protein stability index (treatment: MLN4924 1 uM, 8 h) of 3.08 ± 0.28.
For FRTDPEAKVKLVFVEDQAVVETVF [ZSWIM9] the same measures were 2.46 ± 0.38 and 2.5 ± 0.32.
